For two substances, Km results are on record in publication PMC10427004, “Restoration of energy homeostasis under oxidative stress: Duo synergistic AMPK pathways regulating arginine kinases” (PLOS Genetics, 2023).

Data set [1] has as its system Nc1ncnc2c1ncn2[C@@H]1O[C@H](COP(=O)(O)OP(=O)(O)O)[C@@H](O)[C@H]1O. The data set is described as follows: hexokinase / glucose-6-phosphate dehydrogenase coupled assay, A340, Lineweaver-Burk. The format is biochemical, Tribolium castaneum. Conditions: 5 mM phospho-L-arginine, 20 mM MgCl2, pH 7.5, 30 °C.
Data set [2] deals with Nc1ncnc2c1ncn2[C@@H]1O[C@H](COP(=O)(O)OP(=O)(O)OP(=O)(O)O)[C@@H](O)[C@H]1O. The data set is described as follows: pyruvate kinase / lactate dehydrogenase coupled assay, A340, Lineweaver-Burk. Format: biochemical, Tribolium castaneum. The settings on record: 5 mM L-arginine, 20 mM MgCl2, pH 7.5, 30 °C.

For the substance “6×His-TcAK1 (Tribolium castaneum; S129D)”, the values for the Km in data set [1] and in data set [2] were 19.4 mM and 4.5 mM, respectively.

As for “6×His-TcAK1 (Tribolium castaneum; T247D)”, the Km in data set [1] is on record as 10.6 mM; in data set [2], 13.0 mM.

As a reminder, the Km is the concentration of substrate that gives half-maximal velocity.
